This note sets out measurements from CN116715774A (WUHAN ABCLONAL INC, dated 2023).

For this assay, the target named is T1, 重组人AXL蛋白 (recombinant human AXL protein) (human, UniProt P30530 26-449, limits assumed).
T1 construct: also called 重组人AXL截短蛋白; 人受体酪氨酸激酶AXL
T1 sequence (looked up): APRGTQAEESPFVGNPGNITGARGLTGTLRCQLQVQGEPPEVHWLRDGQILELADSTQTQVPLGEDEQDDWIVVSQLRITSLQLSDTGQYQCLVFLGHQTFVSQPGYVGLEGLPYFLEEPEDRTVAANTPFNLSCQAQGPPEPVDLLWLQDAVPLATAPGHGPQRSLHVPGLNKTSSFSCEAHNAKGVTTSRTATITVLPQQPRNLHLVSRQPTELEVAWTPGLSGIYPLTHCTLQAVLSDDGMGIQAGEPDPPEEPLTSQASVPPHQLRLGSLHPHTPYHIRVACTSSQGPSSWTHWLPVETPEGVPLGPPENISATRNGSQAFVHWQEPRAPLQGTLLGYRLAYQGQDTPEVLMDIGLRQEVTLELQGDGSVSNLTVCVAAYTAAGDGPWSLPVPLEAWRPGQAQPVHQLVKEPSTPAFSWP
The assay can be described thus: BLI (Gator biomolecular interaction analyser), antibody against recombinant human AXL.

B1: 兔单克隆抗体B (rabbit monoclonal antibody B against human AXL) (antibody, V domains shown)
VH: QEQLKESGGGLVQPGGSLKLSCKASGFSLSYYGVNWVRQAPGKGLEWIACIDPVFGATYYASWVNDRFTISSHNAQNTLYLQLSSLTPADTATYFCARGRYYRYGYTYATGMDIWGPGTLVTVSS
VL: AIDMTQTPSSVSAAVGDTVTINCQASEDIYSFLAWYQQKPGHSPKLLIYDASKLASGVSSRFKGSGSGTQFTLTISGVQCDDAATYYCQQTYSVSNADTAFGGGTEVVVKG
notes: also called 抗人AXL兔单克隆抗体B
With B1, the Kd (usually the constant that tells how readily two partners part at equilibrium) stood at 1.14 nM; the koff (as a rule, the rate constant with which the complex falls apart) came to 0.000387 s⁻¹; the kon (as a rule, the rate constant with which the complex forms) turned out to be 341000 M⁻¹ s⁻¹.

B2: 兔单克隆抗体A (rabbit monoclonal antibody A against human AXL) (antibody, V domains shown)
VH: QSVEESGGRLVTPGTPLTLTCTVSGIDLSTYAMIWVRQAPGEGLEWIGTIYTDGATAYARWAKGRFTISKTSTTVDLKMTSLTTEDTATYFCARGFGISKFVFSLWGPGTLVTVSL
VL: DIVMTQTPASVEAAVGDTVTIKCQASQNIYSNLAWYQQKPGQPPKLLIYFASNLPSGVPSRFKGSGSGTEYTLTISGVQCDDAATYYCQNYYINEIVFGGGTEVVVKG
notes: also called 抗人AXL兔单克隆抗体A
With B2, the Kd worked out at 0.555 nM, the off-rate constant (koff) was 0.000132 s⁻¹ and the kon was found to be 237000 M⁻¹ s⁻¹.
